± gives the uncertainty stated by the source.
Assay: self-splicing fitness, log relative to wild type (ln ratio); higher = more splicing; Tetrahymena group I intron in knt gene, E. coli kanamycin selection, DiMSum; sequences stand for … in CUCUCU…GGAGGGAAAAGUUAUCAGGCAUGCACCUGGUAGCUAGUCUUUAAACCAAUAGAUUGCAUCGGUUUAAAAGGCAAGACCGUCAAAUUGCGGGAAAGGGGUCAACAGCCGUUCAGUACCAAGUCUCAGGGGAAACUUUGAGAUGGCCUUGCAAAGGGUAUGGUAAUAAGCUGACGGACAUGGUCCUAACCACGCAGCCAAGUCCUAAGUCAACAGAUCUUCUGUUGAUAUGGAUGCAGUUCACAGACUAAAUGUCGGUCGGGGAAGAUGUAUUCUUCUCAUAAGAUAUAGUCGGACCUCUCCUUAAUGGGAGCUAGCGGAUGAAGUGAUGCAACACUGGAGCCGCUGGGAACUAAUUUGUAUGCGAAAGUAUAUUGAUUAGUUUUGGAGUACUCGUGGUCG
In short: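 DiMSum derived fitness as the error-weighted combination of fold changes across replicates, kanamycin versus no kanamycin, normalised to wild type. E. coli BL21(DE3) held the library, which randomised all eight P1ex-region intron nucleotides within the knt kanamycin-resistance gene on pET-22b(+). Six replicate transformations grew overnight at 37°C or 30°C on LB agar with or without 25 μg/mL kanamycin, also containing 100 μg/mL carbenicillin, 50 μM IPTG and 0.2% rhamnose, and pooled colonies were amplicon-sequenced on an Illumina HiSeq 2500.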

Sequence	self-splicing fitness (ln) (30 °C)	self-splicing fitness (ln) (37 °C)
AUCCAGCAAUAUUACGGAAC	-2.68 ± 0.18	-1.06 ± 0.15
AUCCAGCAAUAUUACGGAUC	-3.35 ± 0.18	-3.11 ± 0.2
AUCCAGCAAUAUUACGGGCC	-1.23 ± 0.2	-1.24 ± 0.33
AUCCAGCAAUAUUACGGGCG	-0.327 ± 0.066	0.25 ± 0.089
AUCCAGCAAUAUUACGGUCC	-1.39 ± 0.13	-0.176 ± 0.21
AUCCAGCAAUAUUACGGUGU	-1.07 ± 0.062	-0.834 ± 0.079
AUCCAGCAAUAUUACGUAGU	-1.54 ± 0.074	-0.703 ± 0.093
AUCCAGCAAUAUUACGUAUA	-0.94 ± 0.11	-1.11 ± 0.14
AUCCAGCAAUAUUACGUCUU	-0.371 ± 0.065	0.716 ± 0.081
AUCCAGCAAUAUUACGUGAU	-2.15 ± 0.1	-1.04 ± 0.12
AUCCAGCAAUAUUACGUGGA	-4.34 ± 0.39	-2.23 ± 0.19
AUCCAGCAAUAUUACGUUAU	-1.36 ± 0.072	-0.198 ± 0.089
AUCCAGCAAUAUUACGUUUG	-2.58 ± 0.12	-2.93 ± 0.18
AUCGAGCAAUAUUACGAACU	-1.06 ± 0.17	-0.725 ± 0.19
AUCGAGCAAUAUUACGACGA	-0.908 ± 0.099	-0.324 ± 0.13
AUCGAGCAAUAUUACGAGAA	–	-2.44 ± 0.34
AUCGAGCAAUAUUACGAUCU	-1.58 ± 0.086	-0.957 ± 0.08
AUCGAGCAAUAUUACGAUGA	-3.37 ± 0.25	-1.86 ± 0.16
AUCGAGCAAUAUUACGAUUG	-4.49 ± 0.46	-3.32 ± 0.26
AUCGAGCAAUAUUACGCAGG	-3.53 ± 0.28	-2.77 ± 0.22
AUCGAGCAAUAUUACGCCCG	-3.48 ± 0.36	-0.807 ± 0.32
AUCGAGCAAUAUUACGCCGG	-1.43 ± 0.22	-1.57 ± 0.3
AUCGAGCAAUAUUACGCUGA	–	-1.82 ± 0.32
AUCGAGCAAUAUUACGGAAA	–	-2.64 ± 0.34

Sequence	self-splicing fitness (ln) (30 °C)	self-splicing fitness (ln) (37 °C)
AUCGAGCAAUAUUACGGCCU	-3.22 ± 0.3	-1.2 ± 0.17
AUCGAGCAAUAUUACGGGAU	-2.82 ± 0.15	-1.78 ± 0.19
AUCGAGCAAUAUUACGGGCA	-1.99 ± 0.23	-1.32 ± 0.27
AUCGAGCAAUAUUACGGUUU	-2.08 ± 0.091	-1.71 ± 0.099
AUCGAGCAAUAUUACGUAAU	-1.91 ± 0.12	-1.25 ± 0.13
AUCGAGCAAUAUUACGUACC	-3.76 ± 0.35	-1.53 ± 0.34
AUCGAGCAAUAUUACGUGAA	-2.75 ± 0.14	-1.83 ± 0.16
AUCGAGCAAUAUUACGUGUU	-2.9 ± 0.22	-2.42 ± 0.29
AUCGAGCAAUAUUACGUUAC	-3.04 ± 0.28	-1.82 ± 0.27
AUCGAGCAAUAUUACGUUCA	-0.62 ± 0.095	-0.544 ± 0.13
AUCUAGCAAUAUUACGACGC	-0.785 ± 0.089	-0.226 ± 0.13
AUCUAGCAAUAUUACGAUCC	-1.97 ± 0.18	-0.573 ± 0.26
AUCUAGCAAUAUUACGAUGA	-1.03 ± 0.091	-0.237 ± 0.091
AUCUAGCAAUAUUACGCCAA	–	-0.995 ± 0.48
AUCUAGCAAUAUUACGCGGU	-2.85 ± 0.18	-2.73 ± 0.26
AUCUAGCAAUAUUACGCGUC	-3.53 ± 0.39	-1.07 ± 0.18
AUCUAGCAAUAUUACGGCAU	0.455 ± 0.096	0.24 ± 0.1
AUCUAGCAAUAUUACGGCUU	-0.0659 ± 0.1	0.305 ± 0.12
AUCUAGCAAUAUUACGGGCC	-3.15 ± 0.23	-2.18 ± 0.22
AUCUAGCAAUAUUACGGGUG	-1.93 ± 0.067	-0.57 ± 0.067
AUCUAGCAAUAUUACGGGUU	-3.51 ± 0.15	-3.09 ± 0.21
AUCUAGCAAUAUUACGUACC	-1.3 ± 0.091	-0.395 ± 0.11
AUCUAGCAAUAUUACGUACU	-0.329 ± 0.082	-0.199 ± 0.11
AUCUAGCAAUAUUACGUCGC	-3.06 ± 0.47	-1.86 ± 0.49

Sequence	self-splicing fitness (ln) (30 °C)	self-splicing fitness (ln) (37 °C)
AUCUAGCAAUAUUACGUGCU	-2.25 ± 0.17	-1.97 ± 0.28
AUCUAGCAAUAUUACGUGUA	-2.44 ± 0.12	-1.31 ± 0.11
AUCUAGCAAUAUUACGUUCA	-1.33 ± 0.099	-0.242 ± 0.085
AUGAAGCAAUAUUACGACCA	0.00939 ± 0.06	0.489 ± 0.083
AUGAAGCAAUAUUACGACGC	0.112 ± 0.13	-0.034 ± 0.17
AUGAAGCAAUAUUACGAUCA	-0.14 ± 0.081	0.405 ± 0.11
AUGAAGCAAUAUUACGCAAG	-0.379 ± 0.085	-0.121 ± 0.11
AUGAAGCAAUAUUACGCGAA	-1.15 ± 0.087	-0.0789 ± 0.093
AUGAAGCAAUAUUACGCUCC	-0.958 ± 0.32	0.251 ± 0.35
AUGAAGCAAUAUUACGCUGA	-1.2 ± 0.13	-1.24 ± 0.17
AUGAAGCAAUAUUACGCUGG	-1.42 ± 0.1	-0.718 ± 0.12
AUGAAGCAAUAUUACGCUUC	-1.79 ± 0.15	-2.99 ± 0.41
AUGAAGCAAUAUUACGGCAU	-0.0745 ± 0.047	0.444 ± 0.063
AUGAAGCAAUAUUACGGGAG	-1.71 ± 0.098	-1.16 ± 0.11
AUGAAGCAAUAUUACGGGAU	-0.638 ± 0.056	-0.499 ± 0.093
AUGAAGCAAUAUUACGGUCG	0.0254 ± 0.086	0.299 ± 0.1
AUGAAGCAAUAUUACGGUUA	-0.509 ± 0.058	0.318 ± 0.077
AUGAAGCAAUAUUACGGUUU	-1.99 ± 0.088	-0.875 ± 0.091
AUGAAGCAAUAUUACGUACA	-0.369 ± 0.083	-0.631 ± 0.089
AUGAAGCAAUAUUACGUAGU	-1.91 ± 0.062	-0.665 ± 0.092
AUGAAGCAAUAUUACGUAUG	-1.78 ± 0.082	-1.26 ± 0.098
AUGAAGCAAUAUUACGUCCU	-0.113 ± 0.093	0.0551 ± 0.11
AUGAAGCAAUAUUACGUCGU	-0.896 ± 0.07	-0.0581 ± 0.089
AUGAAGCAAUAUUACGUGAU	-1.24 ± 0.073	-0.839 ± 0.085

Sequence	self-splicing fitness (ln) (30 °C)	self-splicing fitness (ln) (37 °C)
AUGAAGCAAUAUUACGUGCG	-0.65 ± 0.08	0.532 ± 0.11
AUGAAGCAAUAUUACGUGGA	-2.73 ± 0.096	-1.45 ± 0.11
AUGCAGCAAUAUUACGAAUU	-1.9 ± 0.1	-0.246 ± 0.12
AUGCAGCAAUAUUACGACGC	-1.48 ± 0.11	-1.32 ± 0.12
AUGCAGCAAUAUUACGAGAC	-3.17 ± 0.29	-2.59 ± 0.33
AUGCAGCAAUAUUACGAGCC	-2.69 ± 0.2	-0.935 ± 0.18
AUGCAGCAAUAUUACGAGCU	-0.624 ± 0.073	-0.565 ± 0.088
AUGCAGCAAUAUUACGAGGU	-3.04 ± 0.16	-2.27 ± 0.13
AUGCAGCAAUAUUACGAUAA	-1.55 ± 0.1	0.424 ± 0.092
AUGCAGCAAUAUUACGCACA	-0.62 ± 0.11	0.467 ± 0.13
AUGCAGCAAUAUUACGCUGG	-2.5 ± 0.17	-2.68 ± 0.25
AUGCAGCAAUAUUACGGAGC	-2.6 ± 0.15	-2.99 ± 0.18
AUGCAGCAAUAUUACGGAGG	-3.79 ± 0.2	-2.07 ± 0.15
AUGCAGCAAUAUUACGGCCA	-0.753 ± 0.14	0.267 ± 0.14
AUGCAGCAAUAUUACGGGCC	-1.43 ± 0.1	-1.02 ± 0.11
AUGCAGCAAUAUUACGGGGC	-4.09 ± 0.23	-2.54 ± 0.21
AUGCAGCAAUAUUACGGGUC	-3.56 ± 0.31	-1.61 ± 0.13
AUGCAGCAAUAUUACGGGUU	-1.98 ± 0.075	-1.29 ± 0.096
AUGCAGCAAUAUUACGGUCU	-0.211 ± 0.078	0.0315 ± 0.091
AUGCAGCAAUAUUACGUAGC	-3.81 ± 0.37	-2.34 ± 0.24
AUGCAGCAAUAUUACGUAUU	-4.03 ± 0.26	-1.69 ± 0.14
AUGCAGCAAUAUUACGUGGC	-4.09 ± 0.28	-2.53 ± 0.19
AUGCAGCAAUAUUACGUGUG	-2.45 ± 0.071	-1.44 ± 0.085
AUGCAGCAAUAUUACGUUCG	-0.728 ± 0.059	-0.798 ± 0.089

From the supplement of paper PMC7877785
